Reference: PMC10933150

How the values were obtained:
[1] = biological target: α7-mCherry (human α7 nicotinic acetylcholine receptor subunit with mCherry in the M3-M4 cytoplasmic loop) (human) (UniProt P36544); assay: FRET or BRET; acceptor photobleaching FRET (apFRET) by confocal microscopy in live HEK293 cells 2 days after transfection; eGFP donor, mCherry acceptor; region of interest in the ER; in DMEM at 37 °C and 5% CO2
[2] = biological target: α7-mCherry (human α7 nicotinic acetylcholine receptor subunit with mCherry in the M3-M4 cytoplasmic loop) (human) (UniProt P36544)
[3] = biological target: α7-mCherry (human α7 nicotinic acetylcholine receptor subunit with mCherry in the M3-M4 cytoplasmic loop) (human) (UniProt P36544); remark: listed apart in the source

Sequence of UniProt P36544 (P36544 23-502): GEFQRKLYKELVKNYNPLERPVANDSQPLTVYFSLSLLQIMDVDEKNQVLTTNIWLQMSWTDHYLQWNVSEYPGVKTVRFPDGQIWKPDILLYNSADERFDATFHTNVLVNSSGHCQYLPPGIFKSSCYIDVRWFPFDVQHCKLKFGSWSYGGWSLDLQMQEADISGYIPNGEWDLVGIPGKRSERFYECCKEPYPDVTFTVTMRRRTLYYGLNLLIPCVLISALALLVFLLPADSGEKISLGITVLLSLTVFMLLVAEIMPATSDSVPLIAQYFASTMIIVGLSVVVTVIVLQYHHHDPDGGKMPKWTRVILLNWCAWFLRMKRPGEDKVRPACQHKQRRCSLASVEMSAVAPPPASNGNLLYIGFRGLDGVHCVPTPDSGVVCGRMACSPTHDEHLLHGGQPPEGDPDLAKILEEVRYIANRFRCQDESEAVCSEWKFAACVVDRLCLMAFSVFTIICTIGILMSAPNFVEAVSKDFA

FRET efficiency (EF) [1] [%] | fold decrease in amplitude of maximal currents elicited by 1 mM acetylcholine in Xenopus oocytes (level of functional α7 nAChR); untagged α7 and RIC3G88R, tagged constructs gave the same pattern (data not shown) [2] [fold] | Substance | ^125I-α-bungarotoxin binding to intact HEK293 cells (cell surface α7), decrease with eGFP-RIC3G88R against eGFP-RIC3WT, α7:RIC3 cDNA 1:1 or 5:1 [3] [%]
7.24 |  | eGFP-RIC3WT (wild-type RIC3 with eGFP fused to the N-terminus) (from UniProt Q7Z5B4-5 29-368) (natural protein) | 
10.7 | 1.5 | eGFP-RIC3G88R (RIC3 variant G88R with eGFP fused to the N-terminus) (from UniProt Q7Z5B4-5 29-368) (natural protein) | 50
